According to US10766940 (GOVERNORS OF THE UNIVERSITY OF ALBERTA, dated 2020):
Positions of bridges follow the written chain, without caps; N, C: chain ends. No end group written: not given here.

Key:
[1] = biological target: T1, AMY1 receptor (heterodimeric complex of the calcitonin receptor and RAMP1) (UniProt P30988 25-474; O60894 27-148); assay: flow cytometry cell uptake, AMY1 transfected cells; reference other fragments
T1 construct: whole, on cells; also called amylin receptor subtype 1

[2] = biological target: T2, AMY3 receptor (heterodimeric complex of the calcitonin receptor and RAMP3) (UniProt P30988 25-474; O60896 24-148); assay: cell-based or functional assay
T2 sequence (looked up) 1: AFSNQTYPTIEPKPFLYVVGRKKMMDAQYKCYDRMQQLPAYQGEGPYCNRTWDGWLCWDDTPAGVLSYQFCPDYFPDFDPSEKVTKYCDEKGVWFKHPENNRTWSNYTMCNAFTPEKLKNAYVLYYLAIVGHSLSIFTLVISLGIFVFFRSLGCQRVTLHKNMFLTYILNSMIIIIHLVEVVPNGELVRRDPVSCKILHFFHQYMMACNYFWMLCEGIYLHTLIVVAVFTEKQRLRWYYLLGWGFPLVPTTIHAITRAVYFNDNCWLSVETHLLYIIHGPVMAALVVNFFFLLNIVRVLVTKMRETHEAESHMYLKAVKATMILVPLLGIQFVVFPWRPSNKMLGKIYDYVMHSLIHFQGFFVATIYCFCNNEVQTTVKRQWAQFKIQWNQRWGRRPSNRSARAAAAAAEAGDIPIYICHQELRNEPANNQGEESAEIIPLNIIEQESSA
T2 sequence (looked up) 2: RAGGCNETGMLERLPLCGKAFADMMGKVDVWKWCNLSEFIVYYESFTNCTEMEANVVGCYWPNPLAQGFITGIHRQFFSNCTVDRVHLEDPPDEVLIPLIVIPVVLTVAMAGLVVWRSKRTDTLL

[3] = biological target: T2, AMY3 receptor (heterodimeric complex of …); assay: flow cytometry, Cy5.5-labelled peptide 5 µM; wild type HEK293 against AMY3-HEK cells
[4] = biological target: T2, AMY3 receptor (heterodimeric complex of …); assay: flow cytometry, Cy5-labelled peptide 5 µM, AMY3-HEK cells; reference AC253
Procedure: (§1) d) For flow cytometry studies, AMY3-293 cells were used to determine cell binding and uptake and binding of Cy5-AC253, and Cy5-cAC253 peptides. Cell were plated at a density of 1.5 ×10^5 cells/well and cultured overnight in 12-well plates at 37° C. Cy5 labelled peptides (5 μM) were added and incubated for 1 hour at 37° C. in serum free media. The culture media was discarded, and cell monolayers were washed with PBS containing 2 mM EDTA and 0.5% BSA adjusted to pH 7.4 at 37° C. Cells were washed again with cold buffer and incubated with 0.25% trypsin to remove cell surface-associated fluorophores. Cells were dispersed in FACS solution (10% FBS in PBS) and analyzed using a FACSCanto II flow cytometer (BD Biosciences, USA) selecting a detection window between 720 and 840 nm. Fluorescence histograms and dot plots were generated using the data were processed with FLOWJO software (Tree Star, Inc, USA). At least 10,000 gated events per sample were analyzed. The experiment was repeated with different peptide concentration ranging from 0.5-10 μM, and mean fluorescence intensity of peptides was extrapolated. To further study the cell uptake mechanism, cells were preincubated with cytochalasin D (cytoD, […]) for 30 minutes, and the experiment was repeated as above. […]

[5] = biological target: amylin receptor in mouse brain (mouse, UniProt Q60755 42-533); assay: cell-based or functional assay
Sequence of amylin receptor in mouse brain (Q60755 42-533): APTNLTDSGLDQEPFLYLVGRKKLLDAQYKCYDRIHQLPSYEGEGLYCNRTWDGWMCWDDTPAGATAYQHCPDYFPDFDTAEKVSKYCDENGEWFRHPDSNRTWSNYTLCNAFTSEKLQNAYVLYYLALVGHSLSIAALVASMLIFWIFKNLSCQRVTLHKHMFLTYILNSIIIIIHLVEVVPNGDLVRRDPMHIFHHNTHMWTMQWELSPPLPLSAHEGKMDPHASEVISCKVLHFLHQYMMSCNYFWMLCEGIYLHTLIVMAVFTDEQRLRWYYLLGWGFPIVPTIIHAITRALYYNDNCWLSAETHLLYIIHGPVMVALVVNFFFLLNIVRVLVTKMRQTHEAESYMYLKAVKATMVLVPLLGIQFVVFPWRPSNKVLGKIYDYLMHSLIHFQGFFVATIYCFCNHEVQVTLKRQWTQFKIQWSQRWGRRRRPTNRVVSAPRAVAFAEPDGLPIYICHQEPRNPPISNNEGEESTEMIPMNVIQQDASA

[6] = biological target: T2, AMY3 receptor (heterodimeric complex of …); assay: flow cytometry, dose-dependent binding of Cy5-labelled peptide (0.5-10 µM) to AMY3-HEK cells
Procedure: as §1

T1 sequence (O60894 27-148, one chain of several): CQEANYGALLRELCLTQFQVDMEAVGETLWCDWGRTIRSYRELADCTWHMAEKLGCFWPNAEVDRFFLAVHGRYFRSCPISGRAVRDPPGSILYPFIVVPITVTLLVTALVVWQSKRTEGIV

Question: With RLQTYPRTNTGS (not fully specified (N-terminus, C-terminus), 12-residue fragment of AC253) [peptide fragment R10 of AC253] as the binder, how does the “fold increase in specific binding compared to other fragments” value [1] read?
Answer: 3 fold

B1: AC253 (peptide)
peptide: Ac-LGRLSQELHRLQTYPRTNTGSNTY-NH2
modifications: not fully specified; printed as Ac-LGRLSQELHRLQTYPRTNTGSNTY; also: labelled form for binding: Cy5/Cy5.5 on extra N-terminal beta-alanine spacer
notes: Synthetic 24-residue peptide; cAMP assay used the unlabelled peptide; also called linear AC253; Cy5-AC253
Question: Which “IC50 for inhibition of hAmylin evoked cAMP increase in AMY3-HEK cells” value [2] does the source give for B1 here?
Answer: ~850 nM

Question: And the “fold decrease in binding and uptake in wild type HEK293 cells compared to AMY3-HEK cells” value [3]?
Answer: 10 fold

B2: cyclized AC253 (peptide)
peptide: CLGRLSQELHRLQTYPRTNTGSNTYC-NH2
modifications: disulfide 1-26; also: flanking Cys said to be D-Cys in one passage
notes: AC253 with one cysteine added at each terminus, cyclized by a disulfide; cAMP assay used the unlabelled peptide; also called cAC253; cyclic AC253
Question: How did the “fold binding and uptake compared to AC253” value [4] turn out when B2 was run?
Answer: 3 fold

Question: What about the “IC50 for inhibition of hAmylin evoked cAMP increase in AMY3-HEK cells” value [2] of the same binder?
Answer: ~300 nM

Question: What about the “fold potency versus AC253 in inhibiting AMY3 receptor activity (cAMP)” value [2] of the same binder?
Answer: 3 fold

Question: And the “reduction in brain fluorescence after ip injection of Cy5-cAC253 mixed with 5-fold excess of unlabeled cAC253 (in vivo competition, ex vivo NIRF imaging)” value [5]?
Answer: 75%

Question: What about the Kd [6] of the same binder?
Answer: 1450 nM

Question: What about the “fold decrease in binding and uptake in wild type HEK293 cells compared to AMY3-HEK cells” value [3] of the same binder?
Answer: 10 fold
